Reference: patent US20240043504A1 (published 2024)

Target: SARS-CoV-2 RBD-hFc (SARS-CoV-2)
Assay: Luminex beads

Binder | binding result
mAb10915 (antibody, V domains shown) VH: EVQLVESGGGLVQPGGSLRLSCAASGFTVSSNYMNWVRQAPGKGLEWVSVIYSGGSTFYADSVKGRFTISRHNSKNTLYLQMNSLRPEDTAVYYCARDLGGYFDYWGQGTLVTVSS VL: not shown | binds
mAb10932 (antibody, V domains shown) VH: EVQLVESGGGLVQSGGSLRLSCAASGLTVSSNYMSWVRQAPGKGLEWVSVIYSGGSTFYSDSVKGRFTISRHNSKNTLYLQMNSLRAEDTAVYYCARARGDAFDIWGQGTMVTVSS VL: not shown | binds
mAb10934 (antibody, V domains shown) VH: not shown VL: DIQMTQSPSSLSASVGDRVTITCQASQDIWNYINWYQQKPGKAPKLLIYDASNLKTGVPSRFSGSGSGTDFTFTISSLQPEDIATYYCQQHDDLPPTFGQGTKVEIKR | binds
mAb10935 (antibody, V domains shown) VH: EVQLVESGGGLVQPGGSLRLSCAASGFTVSSNYMSWVRQAPGKGLEWVSLIYSGGSTYYADSVKGRFTISRHNSKNTLYLQMNSLRSEDTAVYYCARVPLGDYYYGMDVWGQGTTVTVSS VL: DIQMTQSPSSLSASVGDRVTITCQASQDINKYLNWYQQKPGKAPKLLIYDASNLETGVPSRFSGSGSGTDFTFTISSLQPEDIATYYCQQSDNLPLTFGGGTKVEIKR | binds
mAb10936 (antibody, V domains shown) VH: QVQLVESGGGVVQPGRSLRLSCAASGFTFRNYGMHWVRQAPGKGLEWVSVIWYDGSNRYYADSVKGRFTISRDTSKNTLYLQMNSLRAEDTAVYYCARDPPITGTTGGDAFDIWGQGTMVTVSS VL: not shown | binds
mAb10937 (antibody, V domains shown) VH: QITLKESGPTLVKPTQTLTLTCTFSGFSLSTNVVGVGWIRQPPGKALEWLALIYWNDDKRYSPSLKSRLTITKDTSKNQVVLTMTNMDPVDTATYYCAHGPTGDYFDYWGQGTLVTVSS VL: not shown | binds
mAb10920 (antibody, V domains shown) VH: QVQLVESGGGVVQPGRSLRLSCAASGFTFSYYGMHWVRQAPGKGLEWVAVIWYDGSNKFYADSVKGRFTISRDNSKNTLYLQMNSLRAEDTAVYYCAAARPGYYYGMDVWGQGTTVTVSS VL: DIQMTQSPSSLSASVGDRVTITCRASQGISNYLAWFQQKPGKAPNSLIYAASSLQRGVPSKFSGSGSGTDFTLTISSLQPEDFATYYCQQYNSYPRTFGQGTKVEIKR | binds
mAb10921 (antibody, V domains shown) VH: EVQLVESGGGLVQPGGSLRLSCAASGITVSSNYMSWVRQAPGKGLEWVSVIYSGGSTFYADSVKGRFTISRHNSKNTLYLQMNSLRAEDTAVYYCARERNFDAFDIWGQGTMVTVSS VL: DIQMTQSPSSVSASVGDRVTITCRASQGISSWLAWYQQKPGKAPKLLIYAASSLQSGVPSRFSGSGSGTDFTLTISSLQPEDFATYYCQQANSFPLFTFGPGTKVDIKR | binds
mAb10923 (antibody, V domains shown) VH: QVQLVQSGAEVKKPGASVKVSCKASGYTFINYYIHWVRQAPGQGLEWMGWINPNSGGTNYAQKFQGRVTMTRDTSISTAYMELSRLRSDDTAVYYCAIITIFGVVTWFDPWGQGTLVTVSS VL: not shown | binds
mAb10930 (antibody, V domains shown) VH: EVQLVESGGGLVQPGRSLRLSCAASGFTFDDYAMYWVRQAPGKGLEWVSGISWNSGSIGYADSVKGRFTISRDNAKNSLYLQMNSLRAADTALYYCAKDKDWNSRGYYYYGMDVWGQGTTVTVSS VL: not shown | binds
mAb10938 (antibody, V domains shown) VH: EVQLVESGGGLVQPGGSLRLSCAVSGFTVSSNYMSWVRQAPGKGLEWVSLIYSGGSTFYADSVKGRFTISRHNSKNTLYLQMNSLRAEDTAVYYCAREGGYSYDYNYWGQGTLVTVSS VL: DIQMTQSPSSLSASVGDRVTITCQASQDIRNYLNWYQQKPGKAPKLLIYDASNLETGVPSRFSGIGSGTDFTFTISSLQPEDIATYYCQQYDNLPITFGQGTRLEIKR | binds
mAb10939 (antibody, V domains shown) VH: EVQLVESGGGLVQPGGSLRLSCAASGLTVSSNYMNWVRQVPGKGLEWVSVIYSGGSKFYVDSVKGRFTISRHNSKNTLYLQMNSLRPEDTAVYYCTRDAQYYGMDVWGQGTTVTVSS VL: DIQMTQSPSSLSASVGDRVTITCRASQSISTYLHWYQQKPGEAPKLLIYAASSLQSGVPSRFSGSGSGTDFTLTISSLQPEDFATYYCQQSYSTPPEIFGQGTKLEIKR | binds
mAb10982 (antibody, V domains shown) VH: EVQLVESGGGLVQPGGSLRLSCAASGLTVSSNYMSWVRQAPGKGLEWVSVIYSGGTTYYADSVKGRFTISRHNSKNTLSLQMNSLRAEDTAVYYCARGEGANYYGMDVWGQGTTVTVSS VL: QSVLTQPPSVSGAPGQRVTISCTGSSSNIGTGYDVHWYQQLPGTAPKLLIYGNSNRPSGVPDRFSGSKSGTSASLAITGLQAEDEADYYCQSYDSSLSGYVVFGGGTKLTVLG | binds
mAb10984 (antibody, V domains shown) VH: EVQLVESGGGLVQPGGSLRLSCAASGLTVNRNYMSWVRQAPGKGLEWVSLIYSGGSTYYADSVKGRFTISRDNSKNTLYLQMNSLRLEDTAVYYCARGELGIPYGMDVWGQGTTVTVSS VL: QSVLTQPPSVSAAPGQKVTISCSGSSSNIGNNYVSWYQQLPGTAPKLLIYDNNKRPSGIPDRFSGSKSGTSATLGITGLQTGDEADYYCGTWDSSLSAGVFGGGTKLTVLG | binds
mAb10985 (antibody, V domains shown) VH: EVQLVESGGGLVQPGRSLRLSCAASGFTFDDYAMHWVRQAPGKGLEWVSGISWNRGSIGYADSVKGRFTISRDNAKNSLYLQMSSLRAEDTALYYCAKDGERWDSVVVPSARNGMDVWGQGTTVTVSS VL: QSVLTQPPSVSGAPGQRVTISCTGSSSNIGAGYDVHWYQQLPGTAPKLLIYGNSNRPSGVPDRFSGSKSGTSASLAITGLQAEDEADYYCQSYDSSLSGSYVFGTGTKVTVLG | binds
mAb10986 (antibody, V domains shown) VH: EVQLVESGGGLVQPGGSLRLSCAASEFTVSSNYMSWVRQAPGKGLEWVSVIYSGGSTFYADSVKGRFTISRDNSKNTLYLQMNSLRAEDTAVYYCARALPYGDLHFDYWGQGTLVTVSS VL: QSVLTQPPSVSGAPGQRVTISCTGSSSNIGTGYDVHWYQQLPGTAPKLLIYGNTNRPSGVPDRFSGSKSGTSASLAITGLQAEDEADYYCQSYDSSLSDSYVFGTGTKVTVLG | binds
mAb10989 (antibody, V domains shown) VH: QVQLVQSGAEVKKPGASVKVSCKASGYIFTGYYMHWVRQAPGQGLEWMGWINPNSGGANYAQKFQGRVTLTRDTSITTVYMELSRLRFDDTAVYYCARGSRYDWNQNNWFDPWGQGTLVTVSS VL: QSALTQPASVSGSPGQSITISCTGTSSDVGTYNYVSWYQQHPGKAPKLMIFDVSNRPSGVSDRFSGSKSGNTASLTISGLQAEDEADYYCSSFTTSSTVVFGGGTKLTVLG | binds
mAb10969 (antibody, V domains shown) VH: QVQLVESGGGVVQPGRSLRLSCAASGFTFSSYAMHWVRQAPGKGLEWVAVISYDGSNKYYADSVKGRFTISRDNSKNTLYLQMNSLRAEDTAVYYCARDGRTITMVRGVIDDAFDIWGQGTMVTVSS VL: not shown | binds
mAb10971 (antibody, V domains shown) VH: EVQLVESGGGLIQPGGSLRLSCAASGVTVSSNYMSWVRQAPGKGLEWVSVIYSGGSTFYSDSVKGRFSISRDNSKNTLYLQMNSLRAEDTAVYYCARDLYYYGMDVWGQGTTVTVSS VL: DIQLTQSPSFLSASVGDRVTITCRASQGISTYLAWYQQKPGKAPKLLIYAASTLQSGVPSRFSGSGSGTEFTLTISSLQPEDFATYYCQQLDSYPGLTFGGGTKVEIKR | binds
mAb10964 (antibody, V domains shown) VH: QVQLQESGPGLVKPSETLSLTCTVSGGSINNYYWIWIRQPPGKGLEWIGYIYHSGSTNYNPSLKSRVTISVDTSKNQFSLKVSSVTAADTAVYYCANMVRGVYEDDYWGQGTLVTVSS VL: DIQMTQSPSSLSASVGDRVTITCRASQSISNYLNWYQQKPGKAPKLLIFAASSLRSGVPSRFSGSGSGTDFTLTISSLHPEDFATYYCQQNYNTPLTFGPGTKVDIKR | binds
mAb10965 (antibody, V domains shown) VH: EVQLVESGGGLIQPGGSLRLSCAASVFTVSYNYMSWVRQAPGKGLEWVSVIYSGGSTYYADSVKGRFTISRDNSKNTLYLQMNSLRAEDTAVYYCARALPGWGGSFEYFDYWGQGTLVTVSS VL: not shown | binds
mAb10966 (antibody, V domains shown) VH: EVQLVESGGGLVQPGGSLRLSCAASGLTVSSNYMSWVRQAPGKGLEWVSVIYSGGSTFYADSVKGRFTISRDNSKNTLYLQMNSLRPEDTAVYYCAREGRIAATGYGMDVWGQGTTVTVSS VL: not shown | binds
mAb10967 (antibody, V domains shown) VH: EVQLVESGGGLVQPGGSLRLSCAASGFTVSSNYMSWVRQAPGKGLEWVSVIYPGGSTFYADSVKGRFTISRDNSKNTLYLQMNSLRAEDTAVYYCARDQRDFAWGQGTLVTVSS VL: DIQMTQSPSSLSASVGDRVTITCQASQDISNYLNWYQQKPGKAPKLLIYDASNLETGVPSRFSGSGSGTDFTFTISGLQPEDIATYYCQQYDNLPPTFGQGTRLEIKR | binds
mAb10954 (antibody, V domains shown) VH: EVQLVESGGGLVQPGGSLRLSCAASGITVSSNYMSWVRQAPGKGLEWVSLIYSGGSTYYADSVKGRFTISRDNSKNTLYLQMNSLRVEDTAVYYCARDHGMAAAGYNYWGQGTLVTVSS VL: DIQMTQSPSSLSASVGDRVTITCQASQDINKYLNWYQQKPGKAPKLLIYDASNLETGVPSRFSGSGSGTDFTFTINSLQPEDFATYFCQQYDNLPPAFGQGTKVEIKR | binds
mAb10955 (antibody, V domains shown) VH: EVQLVESGGGLVQPGGSLRVSCAASGFTVSRNYMSWVRQAPGKGLEWVSVIYSGGSTFYADSVKGRFTISRDNSKNTLYLQMNSLRAEDTAIYYCARYIPRFDPWGQGTLVTVSS VL: DIQMTQSPSSLSASVGDRVTITCQASQDISNYLNWFQQKPGRAPKLLIYDASNLETGVPSRFSGSGSGTDFTFTISSLQPEDIATYYCQQYDNLPITFGQGTRLEIKR | binds
mAb10956 (antibody, V domains shown) VH: EVQLVESGGGLVQPGGSLRLSCAASGLTVSSNYMSWVRQAPGKGLEWVSVIYSGGSTFYADSVKGRFTISRDNSKNTLYLQMNSLRAEDTAVYYCARDLIKYGMDVWGQGTTVTVSS VL: not shown | binds
